Data as given in paper PMC6099927, “Aptamer Display on Diverse DNA Polyhedron Supports”.

What was measured:
[1] = target: T1, Plasmodium falciparum lactate dehydrogenase (PfLDH) (Plasmodium falciparum, UniProt Q27743 1-316); experiment: APTEC plate capture assay (enzyme activity of captured PfLDH), logistic fit; 2x PBS binding buffer (recombinant PfLDH), 1 h, streptavidin plate coated with DNA, PBST (0.1% Tween-20) washes, absorbance 570 nm; blood: 1:1 with PBS 0.5% Triton X-100; pH and temperature not stated; details: protein: recombinant; tags: His (HisTrap purified); chain copies: 4; label: 5' biotin; single strand
[2] = target: T1, Plasmodium falciparum lactate …; experiment: APTEC plate capture assay; 2x PBS binding buffer (recombinant PfLDH), 1 h, streptavidin plate coated with DNA, PBST (0.1% Tween-20) washes, absorbance 570 nm; blood: 1:1 with PBS 0.5% Triton X-100; pH and temperature not stated; details: protein: recombinant, tags: His (HisTrap purified), chain copies: 4
[3] = target: T1, Plasmodium falciparum lactate …; experiment: APTEC plate capture assay; higher signal than aptamer alone; 2x PBS binding buffer (recombinant PfLDH), 1 h, streptavidin plate coated with DNA, PBST (0.1% Tween-20) washes, absorbance 570 nm; blood: 1:1 with PBS 0.5% Triton X-100; pH and temperature not stated; details: protein: recombinant, tags: His (HisTrap purified), chain copies: 4

T1 sequence (Q27743 whole entry): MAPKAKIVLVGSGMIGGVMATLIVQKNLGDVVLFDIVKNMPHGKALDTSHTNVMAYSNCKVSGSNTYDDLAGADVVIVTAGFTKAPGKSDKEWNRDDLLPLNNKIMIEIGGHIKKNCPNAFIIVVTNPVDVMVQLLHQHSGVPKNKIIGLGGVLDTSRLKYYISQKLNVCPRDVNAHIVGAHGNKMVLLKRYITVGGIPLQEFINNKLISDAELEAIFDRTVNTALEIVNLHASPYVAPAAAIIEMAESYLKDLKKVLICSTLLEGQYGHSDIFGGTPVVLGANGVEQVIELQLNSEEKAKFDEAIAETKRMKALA

**Q.** With CTGGGCGGTAGAACCATAGTGACCCAGCCGTCTAC (structured_DNA) [PfLDH aptamer alone (Apt)] as the binder, how does the Kd [1] read?
**A.** The Kd was 12.7 ± 0.71 nM.

B1: aptamer-tetrahedron 1 (mixed)
DNA 1: TTTTGCGGCTGGAGCCATGTCATCAGGGGCACGTCTCTAGGACGCGGCCGGGTCT
DNA 2: TTCATGGCTCCAGCCGCAATGACGGGACCGTGTGCCTGAGC
DNA 3: TTGAGACGTGCCCCTGATGTGCTCAGGCACTGCAGGGCAAA
DNA 4: CTGGGCGGTAGAACCATAGTGACCCAGCCGTCTACTTCGGTCCCGTCTAGACCCGGCCGCGTCCTTTTTGCCCTGC
**Q.** With B1 as the binder, how does the Kd ([2]; label: 5' biotin on Ta, T1b, T1c, tetrahedron of 4 strands, height 2.65 nm) read?
**A.** Its Kd is 1.22 ± 0.13 nM.

B2: aptamer with double-stranded spacer (C2a/C2b) (mixed)
DNA 1: CTGGGCGGTAGAACCATAGTGACCCAGCCGTCTACTTTGGGGCCGGGCGCGCCCCGGTT
DNA 2: TTCCGGGGCGCGCCCGGCCCCA
**Q.** Does B2 bind ([3]; label: 3' biotin on C2a, 20 bp spacer duplex, 5' aptamer overhang)?
**A.** Result: binds

B3: aptamer-tetrahedron 2 (mixed)
DNA 1: B1 DNA 1
DNA 2: TTCATGGCTCCAGCCGCAATTATCTAGCGATCTCACCTCGTCAAGGGTAAGCCCG
DNA 3: TTGAGACGTGCCCCTGATGTCGGGCTTACCCTTGACGTGTGGTAATTGTTGTGTA
DNA 4: CTGGGCGGTAGAACCATAGTGACCCAGCCGTCTACTTGGTGAGATCGCTAGATATAGACCCGGCCGCGTCCTTTACACAACAATTACCAC
**Q.** Which Kd ([2]; label: 5' biotin on Ta, T2b, T2c, tetrahedron of 4 strands, height 6.72 nm) does the source give for B3 here?
**A.** Its Kd is 2.09 ± 0.15 nM.

B4: aptamer-tetrahedron 3 (mixed)
DNA 1: B1 DNA 1
DNA 2: TTCATGGCTCCAGCCGCAATTGATCATTGAGTGTCGGTGGCGATGTCTCCCCGATAAAGCGTATGTTATAAGTCT
DNA 3: TTGAGACGTGCCCCTGATGTAGACTTATAACATACGCTTTATCGGGGTCCGGAGCCATCACACCTGGATCAGGAC
DNA 4: CTGGGCGGTAGAACCATAGTGACCCAGCCGTCTACTTGACATCGCCACCGACACTCAATGATCATAGACCCGGCCGCGTCCTTGTCCTGATCCAGGTGTGATGGCTCCGG
**Q.** How did the Kd ([2]; label: 5' biotin on Ta, T3b, T3c, tetrahedron of 4 strands, height 10.55 nm) turn out when B4 was run?
**A.** The Kd was 1.61 ± 0.1 nM.

B5: aptamer square-based pyramid (mixed)
DNA 1: TTATGTAACCGTGTCACTCCAGGTGTACTTCCTAAAATCGCGCGACCAG
DNA 2: TTCACGGTTACATTCTGTGTTGGCACGGCGTCGTCCGGGTGGCGGTT
DNA 3: TTCACCTGGAGTGTAACCGCCACCCGGACGTCGTTCGTCAAATAGTG
DNA 4: TTTTTTAGGAAGTTCACTATTTGACGAACGTGCTATGCCGCGCGCCT
DNA 5: CTGGGCGGTAGAACCATAGTGACCCAGCCGTCTACTTCGCCGTGCCAACACAGTCTGGTCGCGCGTAGGCGCGCGGCATAGC
**Q.** With B5 as the binder, how does the Kd ([2]; label: 5' biotin on P1a-P1d, square-based pyramid of 5 strands) read?
**A.** The Kd was 5.99 ± 0.64 nM.

B6: aptamer pentagon-based pyramid (mixed)
DNA 1: TTCGGCCGATCTGGCATAGGCTTCCCCAACGTTATCTCGCGTGGCGTACGG
DNA 2: TTGATCGGCCGTTCCGCGCGTCCTGCCCTAGACGCCCCTGGGCCC
DNA 3: TTGCCTATGCCTGGGCCCAGGGGCGTCTTGGAGTCAACAGGTCGG
DNA 4: TTCGTTGGGGATCCGACCTGTTGACTCCTCCCGTCGACCAAAGAT
DNA 5: TTCGCGAGATATATCTTTGGTCGACGGGTCTCAGCCCTGACCCCA
DNA 6: CTGGGCGGTAGAACCATAGTGACCCAGCCGTCTACTTGGGCAGGACGCGCGGATCCGTACGCCTTGGGGTCAGGGCTGAG
**Q.** For B6, which Kd ([2]; label: 5' biotin on P2a-P2e, pentagon-based pyramid of 6 strands) is on record?
**A.** Its Kd is 14.8 ± 0.8 nM.

B7: aptamer with single-stranded spacer (C2a) (structured_DNA)
DNA: B2 DNA 1
**Q.** Does B7 bind ([3]; label: 3' biotin, single strand)?
**A.** Result: binds
